For one substance, fold binding relative to TRF2^ΔB results are on record in PMC10104862.

For the experiment, the target named is Flag-TRF2 (Telomeric repeat-binding factor 2), wild type (not stated (human or mouse cDNA cloned)) (UniProt Q15554). Nature of the experiment: co-IP; 293T or U2OS cells co-transfected with epitope-tagged cDNAs, lysed 48 h later in BCO 300 buffer (20 mM HEPES pH 7.5, 10% glycerol, 1 mM EDTA, 0.1% NP-40); Flag M2 affinity gel; SDS-PAGE and blot.
Chain of UniProt Q15554 (Q15554 whole entry): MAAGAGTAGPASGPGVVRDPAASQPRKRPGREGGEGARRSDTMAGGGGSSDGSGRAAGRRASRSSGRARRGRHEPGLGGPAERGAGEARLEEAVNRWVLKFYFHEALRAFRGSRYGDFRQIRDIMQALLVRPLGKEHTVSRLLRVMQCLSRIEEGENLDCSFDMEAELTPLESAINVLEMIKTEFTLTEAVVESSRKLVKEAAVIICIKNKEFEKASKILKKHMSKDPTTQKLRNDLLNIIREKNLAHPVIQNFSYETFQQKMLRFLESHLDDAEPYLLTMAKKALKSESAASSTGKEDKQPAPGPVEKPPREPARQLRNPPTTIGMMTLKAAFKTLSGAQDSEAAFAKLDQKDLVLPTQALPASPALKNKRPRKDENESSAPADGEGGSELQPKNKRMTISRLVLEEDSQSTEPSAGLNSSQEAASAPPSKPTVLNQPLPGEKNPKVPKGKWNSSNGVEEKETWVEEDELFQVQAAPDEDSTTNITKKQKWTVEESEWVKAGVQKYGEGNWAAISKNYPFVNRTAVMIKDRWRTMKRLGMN

The substance “ADAR1p110, wild type (expressed construct) (natural protein)” registered a fold binding relative to TRF2^ΔB of 3 fold.
